From IntAct's records for PubMed 14551211

B1: ATP-dependent DNA helicase II subunit 2 (Saccharomyces cerevisiae), Q04437 (parent)
chain: MSSESTTFIVDVSPSMMKNNNVSKSMAYLEYTLLNKSKKSRKTDWISCYLANCPVSENSQEIPNVFQIQSFLAPVTTTATIGFIKRLKQYCDQHSHDSSNEGLQSMIQCLLVVSLDIKQQFQARKILKQIVVFTDNLDDLDITDEEIDLLTEELSTRIILIDCGKDTQEERKKSNWLKLVEAIPNSRIYNMNELLVEITSPATSVVKPVRVFSGELRLGADILSTQTSNPSGSMQDENCLCIKVEAFPATKAVSGLNRKTAVEVEDSQKKERYVGVKSIIEYEIHNEGNKKNVSEDDQSGSSYIPVTISKDSVTKAYRYGADYVVLPSVLVDQTVYESFPGLDLRGFLNREALPRYFLTSESSFITADTRLGCQSDLMAFSALVDVMLENRKIAVARYVSKKDSEVNMCALCPVLIEHSNINSEKKFVKSLTLCRLPFAEDERVTDFPKLLDRTTTSGVPLKKETDGHQIDELMEQFVDSMDTDELPEIPLGNYYQPIGEVTTDTTLPLPSLNKDQEENKKDPLRIPTVFVYRQQQVLLEWIHQLMINDSREFEIPELPDSLKNKISPYTHKKFDSTKLVEVLGIKKVDKLKLDSELKTELEREKIPDLETLLKRGEQHSRGSPNNSNN

Variants of: B1
Conditions: with sir4_yeast SIR4, P11978
Chain of sir4_yeast SIR4, P11978 (P11978 whole entry): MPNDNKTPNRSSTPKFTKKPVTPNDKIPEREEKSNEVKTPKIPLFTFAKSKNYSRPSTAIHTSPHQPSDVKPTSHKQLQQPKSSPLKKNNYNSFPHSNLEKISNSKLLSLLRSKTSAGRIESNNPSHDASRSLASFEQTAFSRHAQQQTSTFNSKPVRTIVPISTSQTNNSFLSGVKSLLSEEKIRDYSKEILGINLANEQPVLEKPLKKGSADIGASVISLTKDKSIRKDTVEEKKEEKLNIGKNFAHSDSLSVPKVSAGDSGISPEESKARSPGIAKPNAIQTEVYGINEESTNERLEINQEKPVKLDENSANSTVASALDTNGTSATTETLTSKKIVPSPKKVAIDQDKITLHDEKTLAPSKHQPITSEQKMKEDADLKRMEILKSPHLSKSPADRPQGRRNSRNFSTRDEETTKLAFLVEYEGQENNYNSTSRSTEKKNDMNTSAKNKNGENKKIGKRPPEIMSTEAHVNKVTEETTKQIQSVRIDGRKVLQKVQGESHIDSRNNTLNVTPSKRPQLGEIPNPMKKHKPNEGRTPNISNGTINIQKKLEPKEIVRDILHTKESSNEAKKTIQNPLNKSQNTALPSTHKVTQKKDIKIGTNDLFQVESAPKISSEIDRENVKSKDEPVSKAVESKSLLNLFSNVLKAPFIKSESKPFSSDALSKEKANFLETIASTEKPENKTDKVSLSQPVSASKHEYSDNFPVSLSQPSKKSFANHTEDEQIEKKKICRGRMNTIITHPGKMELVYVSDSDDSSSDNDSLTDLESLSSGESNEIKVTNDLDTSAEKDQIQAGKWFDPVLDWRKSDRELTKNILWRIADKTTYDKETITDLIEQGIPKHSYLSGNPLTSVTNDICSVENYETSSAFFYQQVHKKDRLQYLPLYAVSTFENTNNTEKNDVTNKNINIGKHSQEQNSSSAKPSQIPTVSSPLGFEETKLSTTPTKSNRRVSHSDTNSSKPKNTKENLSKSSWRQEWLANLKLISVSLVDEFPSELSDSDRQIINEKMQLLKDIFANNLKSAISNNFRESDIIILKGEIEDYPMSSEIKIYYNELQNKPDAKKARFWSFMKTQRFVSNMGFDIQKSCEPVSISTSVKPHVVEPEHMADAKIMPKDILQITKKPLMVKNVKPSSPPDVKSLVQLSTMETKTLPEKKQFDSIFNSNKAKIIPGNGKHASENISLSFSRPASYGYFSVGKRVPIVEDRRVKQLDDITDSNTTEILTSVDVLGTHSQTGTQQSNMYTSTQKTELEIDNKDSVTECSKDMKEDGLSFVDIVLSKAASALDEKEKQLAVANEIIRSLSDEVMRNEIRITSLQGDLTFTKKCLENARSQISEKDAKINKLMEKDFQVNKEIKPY

Question: Which “effect of a mutation on the interaction” value does the source give for D441G here?
Answer: decreasing interaction

Question: With P437A;F438A as the variant, how does the “effect of a mutation on the interaction” value read?
Answer: decreasing interaction
